Consider 4 substances from patent US20100273186A1, “SPLIT MUTANT HYDROLASE FUSION REPORTER AND USES THEREOF” (Promega Corporation, priority 2007, published 2010).

Some targets named below: FKBP-hRL (92-311) (UniProt P62942); hRL (92-311)-FKBP (UniProt P27652); FKBP-hRL (112-311) (UniProt P62942); hRL (112-311)-FKBP (UniProt P27652).
Test in all cases: cell-based or functional assay

Sequence of FKBP-hRL (112-311) (P62942 other isoform, or with tags, fused parts or gaps): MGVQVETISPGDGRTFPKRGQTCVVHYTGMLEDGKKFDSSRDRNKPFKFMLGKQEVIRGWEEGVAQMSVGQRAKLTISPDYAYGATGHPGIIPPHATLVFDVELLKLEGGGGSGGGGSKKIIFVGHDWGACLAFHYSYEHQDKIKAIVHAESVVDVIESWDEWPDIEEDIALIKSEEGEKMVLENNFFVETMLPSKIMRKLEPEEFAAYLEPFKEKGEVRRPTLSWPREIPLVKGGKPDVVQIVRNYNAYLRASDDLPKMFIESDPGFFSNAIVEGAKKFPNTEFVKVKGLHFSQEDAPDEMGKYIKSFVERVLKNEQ
Sequence of hRL (1-91)-FRB (P27652 other isoform, or with tags, fused parts or gaps): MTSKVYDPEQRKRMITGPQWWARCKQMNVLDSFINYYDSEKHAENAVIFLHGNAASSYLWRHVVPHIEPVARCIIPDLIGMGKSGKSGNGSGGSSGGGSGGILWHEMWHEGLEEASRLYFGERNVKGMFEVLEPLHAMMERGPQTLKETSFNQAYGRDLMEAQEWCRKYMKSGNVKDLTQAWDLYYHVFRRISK
Sequence of hRL (112-311)-FKBP (P27652 other isoform, or with tags, fused parts or gaps): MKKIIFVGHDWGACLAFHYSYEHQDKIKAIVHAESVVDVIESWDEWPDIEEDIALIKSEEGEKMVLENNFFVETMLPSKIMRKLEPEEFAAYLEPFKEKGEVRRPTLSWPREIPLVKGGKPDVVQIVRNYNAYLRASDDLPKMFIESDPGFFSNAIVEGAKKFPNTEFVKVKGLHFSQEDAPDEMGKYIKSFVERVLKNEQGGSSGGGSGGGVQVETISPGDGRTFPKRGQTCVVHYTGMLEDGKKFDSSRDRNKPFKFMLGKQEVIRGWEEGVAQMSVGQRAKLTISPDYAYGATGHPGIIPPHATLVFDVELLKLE
Sequence of hRL (92-311)-FKBP (P27652 other isoform, or with tags, fused parts or gaps): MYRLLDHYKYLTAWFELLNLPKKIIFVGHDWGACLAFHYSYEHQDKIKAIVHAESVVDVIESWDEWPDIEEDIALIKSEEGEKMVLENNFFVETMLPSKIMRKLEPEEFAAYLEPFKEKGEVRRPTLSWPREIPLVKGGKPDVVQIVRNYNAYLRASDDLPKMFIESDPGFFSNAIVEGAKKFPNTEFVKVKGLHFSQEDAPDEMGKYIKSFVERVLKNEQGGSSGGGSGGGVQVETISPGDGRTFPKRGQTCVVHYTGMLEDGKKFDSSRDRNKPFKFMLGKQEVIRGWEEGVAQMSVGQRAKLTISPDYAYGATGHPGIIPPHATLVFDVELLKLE
Sequence of hRL (1-111)-FRB (P27652 other isoform, or with tags, fused parts or gaps): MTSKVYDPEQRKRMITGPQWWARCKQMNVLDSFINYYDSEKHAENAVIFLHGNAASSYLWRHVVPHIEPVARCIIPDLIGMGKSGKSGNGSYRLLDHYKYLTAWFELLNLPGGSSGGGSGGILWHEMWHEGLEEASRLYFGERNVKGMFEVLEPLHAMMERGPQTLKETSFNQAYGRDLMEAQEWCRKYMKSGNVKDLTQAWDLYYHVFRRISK
Sequence of FKBP-hRL (92-311) (P62942 other isoform, or with tags, fused parts or gaps): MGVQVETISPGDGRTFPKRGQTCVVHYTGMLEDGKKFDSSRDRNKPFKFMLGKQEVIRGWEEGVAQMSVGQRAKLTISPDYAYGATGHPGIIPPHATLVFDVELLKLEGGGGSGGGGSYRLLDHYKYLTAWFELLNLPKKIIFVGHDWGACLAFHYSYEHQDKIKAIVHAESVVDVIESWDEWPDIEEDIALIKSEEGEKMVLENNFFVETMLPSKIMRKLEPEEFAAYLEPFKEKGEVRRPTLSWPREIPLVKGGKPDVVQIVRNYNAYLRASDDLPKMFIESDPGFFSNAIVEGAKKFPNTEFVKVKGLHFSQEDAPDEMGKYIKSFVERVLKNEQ

With “hRL (1-91)-FRB (from UniProt P27652 1-91; P42345 2021-2113)”, the Renilla luciferase activity (PCA, TnT lysate) (fold (+rapamycin against no rapamycin)) with FKBP-hRL (92-311) stood at 8.6.
As to “FRB-hRL (1-91) (from UniProt P42345 2021-2113; P27652 1-91)”, the Renilla luciferase activity (PCA, TnT lysate) (fold (+rapamycin against no rapamycin)) with hRL (92-311)-FKBP is 134.
As to “hRL (1-111)-FRB (from UniProt P27652 1-111; P42345 2021-2113)”, the Renilla luciferase activity (PCA, TnT lysate) (fold (+rapamycin against no rapamycin)) in the test with FKBP-hRL (112-311) was determined as 81.
“FRB-hRL (1-111) (from UniProt P42345 2021-2113; P27652 1-111)”: the Renilla luciferase activity (PCA, TnT lysate) (fold (+rapamycin against no rapamycin)) came to 46 with hRL (112-311)-FKBP and 5.3 with FKBP-hRL (112-311).
